{"source": "paper PMC7717906", "about": "(eLife, 2020)", "proteins": {"B1": {"name": "His-MoOsm1 (enzyme)", "chain": "MAEFVRAQIFGTTFEITSRYSDLQPVGMGAFGLVCSARDQLTNQNVAIKKIMKPFSTPVLAKRTYRELKLLKHLKHENVISLSDIFISPLEDIYFVTELLGTDLHRLLTSRPLEKQFIQYFLYQIMRGLKYVHSAGVVHRDLKPSNILVNENCDLKICDFGLARIQDPQMTGYVSTRYYRAPEIMLTWQKYDVEVDIWSAGCIFAEMLEGKPLFPGKDHVNQFSIITELLGTPPDDVINTIASENTLRFVKSLPKRERQPLKNKFKNADPSAIDLLERMLVFDPKKRITATEALAHEYLTPYHDPTDEPIAEEKFDWSFNDADLPVDTWKIMMYSEILDYHNAEAGMQQMDDQFTGQ"}}, "molecular_target": "the molecule itself", "assay": "SEC"}
{"protein": "B1", "values": [{"measurement": "stoichiometry N", "result": 2}]}
